The source of these data is US20240199745A1, “ANTI-EGFR ANTIBODY DRUG CONJUGATES” (priority 2016, published 2024).

Where a chain is given by its changes, count along the chain named. Where only a bound is given, the exact number is not on record here.

For experiment [1], the target named is human EGFR (huEGFR) over-expressed on mcl-1-/- mouse embryonic fibroblasts (human, UniProt P00533 25-1210). Nature of the experiment: cell-based or functional assay.
Experiment [2] has as its target EGFR on EGFR positive non-small cell lung cancer cells NCI-H1650 (UniProt P00533 25-1210). The experiment can be described thus: cell-based or functional assay.

B1: AbA-CZ (antibody, human IgG1, kappa, V domains shown)
VH: EVQLQESGPGLVKPSQTLSLTCTVSGYSISRDFAWNWIRQPPGKGLEWMGYISYNGNTRYQPSLKSRITISRDTSKNQFFLKLNSVTAADTATYYCVTASRGFPYWGQGTLVTVSS
VL: DIQMTQSPSSMSVSVGDRVTITCHSSQDINSNIGWLQQKPGKSFKGLIYHGTNLDDGVPSRFSGSGSGTDYTLTISSLQPEDFATYYCVQYAQFPWTFGGGTKLEIKR
modifications: synthon CZ on reduced interchain cysteines; average DAR 3.2 per ADC
B1: the “huEGFR+ mcl-1-/- MEF EC50” value in experiment [1] was found to be 0.3 nM. Further, in experiment [2], the “H1650 CTG-3D EC50” value is 0.88 µg/mL and the “H1650 GFP Flourescence EC50” value stood at 1.24 µg/mL.

B2: AbA-AAA (antibody, human IgG1, kappa, V domains shown)
VH: B1 VH
VL: B1 VL
modifications: synthon AAA on reduced interchain cysteines; average DAR 2 per ADC
B2: in experiment [1], the “huEGFR+ mcl-1-/- MEF EC50” value was 220 nM. In experiment [2], the “H1650 CTG-3D EC50” value is 0.65 µg/mL and the “H1650 GFP Flourescence EC50” value came to 0.98 µg/mL.

B3: AbG-SE (antibody, human IgG1, kappa, V domains shown)
VH: B1 VH with R31N, P41L, N55K, F103L
VL: B1 VL with N30T, S31Y, T52A, A92D, Q93E
modifications: synthon SE on reduced interchain cysteines; average DAR 3.8 per ADC
Consider B3, for which the “huEGFR+ mcl-1-/- MEF EC50” value in experiment [1] turned out to be 24 nM. In addition, in experiment [2], the “H1650 CTG-3D EC50” value amounted to 0.96 µg/mL and the “H1650 GFP Flourescence EC50” value came out at 0.99 µg/mL.

B4: AbK-ZZ (antibody, human IgG1, kappa, V domains shown)
VH: B1 VH with Y105W
VL: B1 VL with N30T, S31Y, I33V, T52S, D56H, A92D, Q93D
modifications: synthon ZZ on reduced interchain cysteines; average DAR 1.9 per ADC
Regarding B4, the “huEGFR+ mcl-1-/- MEF EC50” value in experiment [1] was found to be 45 nM. In experiment [2], the “H1650 CTG-3D EC50” value was 0.03 µg/mL and the “H1650 GFP Flourescence EC50” value was 0.16 µg/mL.

B5: AbG-KZ (antibody, human IgG1, kappa, V domains shown)
VH: B1 VH with R31N, P41L, N55K, F103L
VL: B1 VL with N30T, S31Y, T52A, A92D, Q93E
modifications: synthon KZ on reduced interchain cysteines; average DAR 2.7 per ADC
For the molecule B5, in experiment [1], the “huEGFR+ mcl-1-/- MEF EC50” value turned out to be 96 nM. In addition, in experiment [2], the “H1650 CTG-3D EC50” value was found to be 38.3 µg/mL and the “H1650 GFP Flourescence EC50” value is 38.2 µg/mL.

B6: AbK-ZT (antibody, human IgG1, kappa, V domains shown)
VH: B1 VH with Y105W
VL: B1 VL with N30T, S31Y, I33V, T52S, D56H, A92D, Q93D
modifications: synthon ZT on reduced interchain cysteines; average DAR 1.3 per ADC
Regarding B6, in experiment [1], the “huEGFR+ mcl-1-/- MEF EC50” value was found to be 0.2 nM. In experiment [2], the “H1650 CTG-3D EC50” value came to 0.05 µg/mL and the “H1650 GFP Flourescence EC50” value worked out at 0.12 µg/mL.

B7: AbG-SR (antibody, human IgG1, kappa, V domains shown)
VH: B1 VH with R31N, P41L, N55K, F103L
VL: B1 VL with N30T, S31Y, T52A, A92D, Q93E
modifications: synthon SR on reduced interchain cysteines; average DAR 2.8 per ADC
For B7, the “huEGFR+ mcl-1-/- MEF EC50” value in experiment [1] is 7 nM. Further, in experiment [2], the “H1650 CTG-3D EC50” value came to 1.31 µg/mL and the “H1650 GFP Flourescence EC50” value was 1.38 µg/mL.

B8: AbG-ZT (antibody, human IgG1, kappa, V domains shown)
VH: B1 VH with R31N, P41L, N55K, F103L
VL: B1 VL with N30T, S31Y, T52A, A92D, Q93E
modifications: synthon ZT on reduced interchain cysteines; average DAR 1.6 per ADC
For the molecule B8, in experiment [1], the “huEGFR+ mcl-1-/- MEF EC50” value worked out at 33 nM. In experiment [2], the “H1650 CTG-3D EC50” value was 0.1 µg/mL and the “H1650 GFP Flourescence EC50” value was determined as 0.08 µg/mL.

B9: AbA-KZ (antibody, human IgG1, kappa, V domains shown)
VH: B1 VH
VL: B1 VL
modifications: synthon KZ on reduced interchain cysteines; average DAR 2 per ADC
On to B9, for which the “huEGFR+ mcl-1-/- MEF EC50” value in experiment [1] was 152 nM. In addition, in experiment [2], the “H1650 CTG-3D EC50” value was over 40 µg/mL and the “H1650 GFP Flourescence EC50” value was determined as 29.3 µg/mL.

B10: AbB-CZ (antibody, human IgG1, kappa, V domains shown)
VH: B1 VH with R31N, N55K, Y105W
VL: B1 VL
modifications: synthon CZ on reduced interchain cysteines; average DAR 3.5 per ADC
Consider B10, for which the “huEGFR+ mcl-1-/- MEF EC50” value in experiment [1] turned out to be 5.9 nM. In addition, in experiment [2], the “H1650 CTG-3D EC50” value turned out to be 1.27 µg/mL and the “H1650 GFP Flourescence EC50” value worked out at 0.88 µg/mL.

B11: AbG-ZZ (antibody, human IgG1, kappa, V domains shown)
VH: B1 VH with R31N, P41L, N55K, F103L
VL: B1 VL with N30T, S31Y, T52A, A92D, Q93E
modifications: synthon ZZ on reduced interchain cysteines; average DAR 1.4 per ADC
In the case of B11, the “huEGFR+ mcl-1-/- MEF EC50” value in experiment [1] stood at 68 nM. In addition, in experiment [2], the “H1650 CTG-3D EC50” value is 0.47 µg/mL and the “H1650 GFP Flourescence EC50” value is 0.44 µg/mL.

B12: AbG-XW (antibody, human IgG1, kappa, V domains shown)
VH: B1 VH with R31N, P41L, N55K, F103L
VL: B1 VL with N30T, S31Y, T52A, A92D, Q93E
modifications: synthon XW on reduced interchain cysteines; average DAR 3.7 per ADC
On to B12, for which the “huEGFR+ mcl-1-/- MEF EC50” value in experiment [1] is 19 nM. In experiment [2], the “H1650 CTG-3D EC50” value is over 40 µg/mL and the “H1650 GFP Flourescence EC50” value is over 40 µg/mL.

B13: AbB-YG (antibody, human IgG1, kappa, V domains shown)
VH: B1 VH with R31N, N55K, Y105W
VL: B1 VL
modifications: synthon YG on reduced interchain cysteines; average DAR 1.1 per ADC
As for B13, in experiment [1], the “huEGFR+ mcl-1-/- MEF EC50” value amounted to 3.3 nM. In experiment [2], the “H1650 CTG-3D EC50” value was 3.28 µg/mL and the “H1650 GFP Flourescence EC50” value is 1.55 µg/mL.

B14: AbB-ZT (antibody, human IgG1, kappa, V domains shown)
VH: B1 VH with R31N, N55K, Y105W
VL: B1 VL
modifications: synthon ZT on reduced interchain cysteines; average DAR 1.4 per ADC
Take B14: the “huEGFR+ mcl-1-/- MEF EC50” value in experiment [1] is 8.9 nM. In experiment [2], the “H1650 CTG-3D EC50” value came to 0.26 µg/mL and the “H1650 GFP Flourescence EC50” value was 0.64 µg/mL.

B15: AbK-SE (antibody, human IgG1, kappa, V domains shown)
VH: B1 VH with Y105W
VL: B1 VL with N30T, S31Y, I33V, T52S, D56H, A92D, Q93D
modifications: synthon SE on reduced interchain cysteines; average DAR 2.7 per ADC
For B15, the “huEGFR+ mcl-1-/- MEF EC50” value in experiment [1] amounted to 161 nM. Moreover, in experiment [2], the “H1650 CTG-3D EC50” value was found to be 2.67 µg/mL and the “H1650 GFP Flourescence EC50” value is 1.68 µg/mL.
